Reference: PMC6773438

B1: Ramazzottius varieornatus damage suppressor protein (Rv Dsup) [Ramazzottius varieornatus] / mononucleosomes reconstituted by salt dialysis with purified recombinant Drosophila core histones [Drosophila] (parent)
chain 1: MASTHQSSTEPSSTGKSEETKKDASQGSGQDSKNVTVTKGTGSSATSAAIVKTGGSQGKDSSTTAGSSSTQGQKFSTTPTDPKTFSSDQKEKSKSPAKEVPSGGDSKSQGDTKSQSDAKSSGQSQGQSKDSGKSSSDSSKSHSVIGAVKDVVAGAKDVAGKAVEDAPSIMHTAVDAVKNAATTVKDVASSAASTVAEKVVDAYHSVVGDKTDDKKEGEHSGDKKDDSKAGSGSGQGGDNKKSEGETSGQAESSSGNEGAAPAKGRGRGRPPAAAKGVAKGAAKGAAASKGAKSGAESSKGGEQSSGDIEMADASSKGGSDQRDSAATVGEGGASGSEGGAKKGRGRGAGKKADAGDTSAEPPRRSSRLTSSGTGAGSAPAAAKGGAKRAASSSSTPSNAKKQATGGAGKAAATKATAAKSAASKAPQNGAGAKKKGGKAGGRKRK
chain 2: not shown
chain 3: not shown
chain 4: not shown
chain 5: not shown

Variants of: B1
Assay: gel mobility shift
Details: Dsup/Nucleosome 3.0, mononucleosome, 5S rDNA sequence (147 bp), parent: 73

response [% Bound]	Variant
47	chain 1 R363E R364E R367E

Same assay, conditions: Dsup/Nucleosome 4.5, mononucleosome, 5S rDNA sequence (147 bp), parent: 95

response [% Bound]	Variant
69	chain 1 R363E R364E R367E
